The results in this text go back to US20240384250A1 (UAB RESEARCH FOUNDATION, published 2024).

For experiment [1], the target named is T1, Fc-tagged human FGFR4 ectodomain (human, UniProt P22455 22-369).
T1 construct: extracellular domain; Bought; also called Fc-FGFR4; not shown: Fc tag
T1 sequence (looked up): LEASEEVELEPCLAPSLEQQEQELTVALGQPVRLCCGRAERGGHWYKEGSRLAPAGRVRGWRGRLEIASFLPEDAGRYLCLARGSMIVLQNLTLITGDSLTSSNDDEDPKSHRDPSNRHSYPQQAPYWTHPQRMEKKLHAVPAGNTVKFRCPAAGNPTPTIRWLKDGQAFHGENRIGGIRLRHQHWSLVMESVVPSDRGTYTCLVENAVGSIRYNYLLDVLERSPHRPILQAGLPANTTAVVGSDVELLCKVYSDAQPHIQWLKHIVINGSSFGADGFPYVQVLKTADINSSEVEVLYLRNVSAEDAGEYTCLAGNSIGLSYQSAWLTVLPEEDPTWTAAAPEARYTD
The experiment in a line: pull-down: Fc-FGFR on protein A/G beads, then FGF21 with PBS, FLAG-sKL or heparin; Western blot with anti-FGF21. As for the experimental part: To study the interaction between Fc-tagged FGFR isoforms (Fc-FGFR), FGF isoforms, and sKL, immunoprecipitation studies were conducted. Protein A beads (6501, BioVision) and protein G beads (6511, BioVision) were used at 25 μl of a 50% stock slurry per sample in a total bead volume of 50 μl. Beads were washed 5× in activity buffer (50 mM Tris [pH 7.4], 200 mM NaCl, 0.01% Tween 20). Bead spin-down assays were all performed for 2 minutes at 5000 g. Beads were resuspended in 1 ml of activity buffer in a 1.5-ml snap cap tube. One microgram of Fc-FGFR1 to 4 was incubated with the beads for 1 hour on a bead rotator. Control samples were incubated with 2 μg of anti-FGF antibody instead of Fc-FGFR. Beads were then pelleted at 5000 g for 2 minutes and washed 5× with activity buffer. Beads were resuspended and incubated with different combinations of 500 ng of FGF, 1 μg of sKL, 1.6 United States Pharmacopeia (USP) units of heparin, or phosphate-buffered saline (PBS). Beads were incubated for 1 hour on a tube rotator, and beads were pelleted and washed as before. One hundred microliters of 1× Laemmli sample buffer (1610737, Bio-Rad) with 1.42 M 2-mercaptoethanol was added, and samples were boiled for 5 minutes. Samples were analyzed using SDS-PAGE and Western blotting.

Experiment [2] addresses T2, recombinant FGF23 protein (species not stated for the assay).
T2 construct: also called fibroblast growth factor 23
T2 sequence (Q9GZV9 25-251, species assumed, looked up): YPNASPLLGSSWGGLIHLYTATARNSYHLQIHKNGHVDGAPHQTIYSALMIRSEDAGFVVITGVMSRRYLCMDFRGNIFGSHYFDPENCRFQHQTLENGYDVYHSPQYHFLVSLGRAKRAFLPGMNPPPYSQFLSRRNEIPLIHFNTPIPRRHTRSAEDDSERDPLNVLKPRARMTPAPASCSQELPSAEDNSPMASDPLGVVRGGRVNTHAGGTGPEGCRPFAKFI
The experiment in a line: plate assay: 100 ng FGF23 coated, 400 ng purified FLAG-tagged sKL-N694Q or wildtype, anti-FLAG-HRP (FIG. 25E). As for the experimental part: Plates were coated with 100 ng of FGF23 or 200 ng of FGFR1c and incubated with 400 ng of purified FLAG-tagged wildtype sKL or sKL-N694Q.

B1: human FGF21 (ligand, UniProt Q9NSA1 29-209, looked up)
chain: HPIPDSSPLLQFGGQVRQRYLYTDDAQQTEAHLEIREDGTVGGAADQSPESLLQLKALKPGVIQILGVKTSRFLCQRPDGALYGSLHFDPEACSFRELLLEDGYNVYQSEAHGLPLHLPGNKSPHRDPAPRGPARFLPLPGLPPALPEPPGILAPQPPDVGSSDPLSMVGPSQGRSPSYAS
With B1, in experiment [1], the binding result was “no binding (tested: 500 ng FGF21 (Methods paragraph 182))”.

B2: FLAG-tagged sKL-N694Q (receptor)
chain: EPGDGAQTWARFSRPPAPEAAGLFQGTFPDGFLWAVGSAAYQTEGGWQQHGKGASIWDTFTHHPLAPPGDSRNASLPLGAPSPLQPATGDVASDSYNNVFRDTEALRELGVTHYRFSISWARVLPNGSAGVPNREGLRYYRRLLERLRELGVQPVVTLYHWDLPQRLQDAYGGWANRALADHFRDYAELCFRHFGGQVKYWITIDNPYVVAWHGYATGRLAPGIRGSPRLGYLVAHNLLLAHAKVWHLYNTSFRPTQGGQVSIALSSHWINPRRMTDHSIKECQKSLDFVLGWFAKPVFIDGDYPESMKNNLSSILPDFTESEKKFIKGTADFFALCFGPTLSFQLLDPHMKFRQLESPNLRQLLSWIDLEFNHPQIFIVENGWFVSGTTKRDDAKYMYYLKKFIMETLKAIKLDGVDVIGYTAWSLMDGFEWHRGYSIRRGLFYVDFLSQDKMLLPKSSALFYQKLIEKNGFPPLPENQPLEGTFPCDFAWGVVDNYIQVDTTLSQFTDLNVYLWDVHHSKRLIKVDGVVTKKRKSYCVDFAAIQPQIALLQEMHVTHFRFSLDWALILPLGNQSQVNHTILQYYRCMASELVRVNITPVVALWQPMAPNQGLPRLLARQGAWENPYTALAFAEYARLCFQELGHHVKLWITMNEPYTRQMTYSAGHNLLKAHALAWHVYNEKFRHAQNGKISIALQADWIEPACPFSQKDKEVAERVLEFDIGWLAEPIFGSGDYPWVMRDWLNQRNNFLLPYFTEDEKKLIQGTFDFLALSHYTTILVDSEKEDPIKYNDYLEVQEMTDITWLNSPSQVAVVPWGLRKVLNWLKFKYGDLPMYIISNGIDDGLHAEDDQLRVYYMQNYINEALKAHILDGINLCGYFAYSFNDRTAPRFGLYRYAADQFEPKASMKHYRKIIDSNGFPGPETLERFCPEEFTVCTECSFFHTRKS
notes: Human assignment as for m24; Tested in HEK293 media and as protein purified from supernatants; also called N6940 and sKL-N6940; not shown: C-terminal FLAG/His tag
Consider B2, for which the “fold increase in FGF23 binding against the wildtype protein” value in experiment [2] came to 3 fold.
